Reference: article PMC10076392, “Structure of the heterotrimeric membrane protein complex FtsB-FtsL-FtsQ of the bacterial divisome” (Nature Communications, 2023)

Target: T1, FtsW-FtsI complex, His-tagged (E. coli strain K12, UniProt P0ABG4 1-414; P0AD68 1-577)
T1 construct: FtsW, transglycosylase, E. coli strain K12 (ATCC10798D-5), amplified from the genome with primers W-F and W-R; also called FtsWI; His-tagged FtsWI; source: E. coli C43, co-expressed from pETduet-FtsWI, purified (Ni-NTA, Superdex-200) in DDM
T1 sequence (looked up) 1: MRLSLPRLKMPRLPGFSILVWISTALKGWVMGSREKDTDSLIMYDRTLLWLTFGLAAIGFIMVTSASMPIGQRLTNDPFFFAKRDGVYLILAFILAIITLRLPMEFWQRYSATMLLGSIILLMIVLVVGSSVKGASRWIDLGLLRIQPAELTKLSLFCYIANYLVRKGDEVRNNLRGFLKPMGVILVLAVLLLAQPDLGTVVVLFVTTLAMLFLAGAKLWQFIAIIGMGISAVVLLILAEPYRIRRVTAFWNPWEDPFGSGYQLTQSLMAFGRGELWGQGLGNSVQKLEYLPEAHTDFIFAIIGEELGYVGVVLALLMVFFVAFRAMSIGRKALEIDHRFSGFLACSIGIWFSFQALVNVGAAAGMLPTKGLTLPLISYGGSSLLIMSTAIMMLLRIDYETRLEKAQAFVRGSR
T1 sequence (looked up) 2: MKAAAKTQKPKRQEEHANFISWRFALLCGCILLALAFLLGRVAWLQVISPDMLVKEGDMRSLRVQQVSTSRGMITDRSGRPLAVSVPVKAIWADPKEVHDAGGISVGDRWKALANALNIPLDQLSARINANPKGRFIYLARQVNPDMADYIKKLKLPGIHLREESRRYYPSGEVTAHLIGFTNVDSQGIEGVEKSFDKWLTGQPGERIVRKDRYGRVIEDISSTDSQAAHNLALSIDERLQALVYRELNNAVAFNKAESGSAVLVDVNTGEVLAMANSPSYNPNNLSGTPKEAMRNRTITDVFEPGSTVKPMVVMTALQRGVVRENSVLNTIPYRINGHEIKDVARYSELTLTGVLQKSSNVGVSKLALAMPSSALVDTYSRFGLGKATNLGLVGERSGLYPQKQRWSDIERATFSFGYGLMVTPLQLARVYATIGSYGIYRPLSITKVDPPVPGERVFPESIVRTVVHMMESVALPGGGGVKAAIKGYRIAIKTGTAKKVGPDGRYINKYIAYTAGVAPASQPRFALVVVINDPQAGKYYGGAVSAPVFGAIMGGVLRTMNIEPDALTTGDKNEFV
Assay: BLI; His-tagged protein loaded at 50 μg/ml on HIS1K (Anti-Penta-HIS) biosensors; analyte in threefold dilutions 0.016-4 µM; 200 mM NaCl, 20 mM HEPES pH7.5, 0.1% DDM; 240 sec association and dissociation; Octet HTX
Details: both partners purified

B1: PBP1b (aa58-804) (enzyme, E. coli strain K12, UniProt P02919 58-804, looked up)
chain: KPRGKRGWLWLLLKLAIVFAVLIAIYGVYLDQKIRSRIDGKVWQLPAAVYGRMVNLEPDMTISKNEMVKLLEATQYRQVSKMTRPGEFTVQANSIEMIRRPFDFPDSKEGQVRARLTFDGDHLATIVNMENNRQFGFFRLDPRLITMISSPNGEQRLFVPRSGFPDLLVDTLLATEDRHFYEHDGISLYSIGRAVLANLTAGRTVQGASTLTQQLVKNLFLSSERSYWRKANEAYMALIMDARYSKDRILELYMNEVYLGQSGDNEIRGFPLASLYYFGRPVEELSLDQQALLVGMVKGASIYNPWRNPKLALERRNLVLRLLQQQQIIDQELYDMLSARPLGVQPRGGVISPQPAFMQLVRQELQAKLGDKVKDLSGVKIFTTFDSVAQDAAEKAAVEGIPALKKQRKLSDLETAIVVVDRFSGEVRAMVGGSEPQFAGYNRAMQARRSIGSLAKPATYLTALSQPKIYRLNTWIADAPIALRQPNGQVWSPQNDDRRYSESGRVMLVDALTRSMNVPTVNLGMALGLPAVTETWIKLGVPKDQLHPVPAMLLGALNLTPIEVAQAFQTIASGGNRAPLSALRSVIAEDGKVLYQSFPQAERAVPAQAAYLTLWTMQQVVQRGTGRQLGAKYPNLHLAGKTGTTNNNVDTWFAGIDGSTVTITWVGRDNNQPTKLYGASGAMSIYQRYLANQTPTPLNLVPPEDIADMGVDYDGNFVCSGGMRILPVWTSDPQSLCQQSEMQQQPS
notes: PBP1b, bi-functional peptidoglycan synthase, E. coli strain K12 (ATCC10798D-5), residues 58-804; Analyte in BLI; source: E. coli C43, from pET15b-PBP1b, purified (Ni-NTA, Superdex-200) in DDM
B1: binds.
